For 17 molecules, Kd results are on record in patent publication US20130261013A1.

The labels stand for the following.
T1: vitamin D binding protein
T1 sequence (P02774 17-474, species assumed, looked up): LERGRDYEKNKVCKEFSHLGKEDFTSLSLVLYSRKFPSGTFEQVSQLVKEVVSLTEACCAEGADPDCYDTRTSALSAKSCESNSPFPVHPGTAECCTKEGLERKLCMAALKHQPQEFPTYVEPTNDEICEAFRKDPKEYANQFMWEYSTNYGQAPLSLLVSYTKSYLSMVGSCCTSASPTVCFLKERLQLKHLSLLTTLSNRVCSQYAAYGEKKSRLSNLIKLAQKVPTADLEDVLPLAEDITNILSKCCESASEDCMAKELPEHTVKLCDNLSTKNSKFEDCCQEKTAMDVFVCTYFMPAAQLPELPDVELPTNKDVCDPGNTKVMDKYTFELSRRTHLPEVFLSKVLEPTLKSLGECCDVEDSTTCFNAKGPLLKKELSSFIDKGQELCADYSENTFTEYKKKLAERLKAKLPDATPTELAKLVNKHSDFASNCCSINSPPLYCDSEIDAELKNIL

B1: 4-C37L34-6C-VD3 (dansyl) (designed binder)
chain: NAADLEARIRHLRERLAARGPRDAAQLAEQLARK([Ahx-VD3])FEK(Dansyl)FARAG
modifications: not fully specified (N-terminus, C-terminus)
B2: 4-C15L8-6C-25OHVD3 (coumarin) (designed binder)
chain: Ac-NAADLEAK([Ahx-25OHVD3])IRHLREK(coumarin)LAARGPRDAAQLAEQLARRFERFARAG
B3: 4-C37L34-6C-25OHVD3 (dansyl) (designed binder)
chain: NAADLEARIRHLRERLAARGPRDAAQLAEQLARK([Ahx-25OHVD3])FEK(Dansyl)FARAG
modifications: not fully specified (N-terminus, C-terminus)
B4: 4-C10L17-6C-VD3 (dansyl) (designed binder)
chain: Ac-NAADLEARIK(Dansyl)HLRERLKARGPRDAAQLAEQLARAFERFARAG
modifications: not fully specified (residue 17)
B5: 3-C15L8-8C-25OHVD3 (dansyl) (designed binder)
chain: Ac-NAADLEAK([8C-25OHVD3])IRHLAEK(Dansyl)LAARGPVDAAQLAEQLARRFEAFARAG
B6: 2-C15L8-8C-25OHVD3 (dansyl) (designed binder)
chain: Ac-NEADLEAK([8C-25OHVD3])IRHLAEK(Dansyl)LAARGPVDAAQLAEQLARAFEAFARAG
B7: 4-C15L8-6C-VD3 (dansyl) (designed binder)
chain: Ac-NAADLEAKIRHLREK(Dansyl)LAARGPRDAAQLAEQLARRFERFARAG
modifications: not fully specified (residue 8)
B8: 3-C15L8-6C-25OHVD3 (dansyl) (designed binder)
chain: Ac-NAADLEAK([Ahx-25OHVD3])IRHLAEK(Dansyl)LAARGPVDAAQLAEQLARRFEAFARAG
B9: 1-C15L8-8C-25OHVD3 (dansyl) (designed binder)
chain: Ac-NEADLEAK([8C-25OHVD3])IRHLAEK(Dansyl)LEARGPEDAEQLAEQLARAFEAFARAG
B10: 3-C10L17-8C-25OHVD3 (dansyl) (designed binder)
chain: Ac-NAADLEARIK(Dansyl)HLAERLK([8C-25OHVD3])ARGPVDAAQLAEQLARAFEAFARAG
B11: 4-C15L8-8C-25OHVD3 (dansyl) (designed binder)
chain: Ac-NAADLEAK([8C-25OHVD3])IRHLREK(Dansyl)LAARGPRDAAQLAEQLARRFERFARAG
modifications: not fully specified (C-terminus)
B12: 4-C25L22-6C-25OHVD3 (dansyl) (designed binder)
chain: NAADLEARIRHLRERLAARGPK([Ahx-25OHVD3])DAK(Dansyl)QLAEQLARAFERFARAG
modifications: not fully specified (N-terminus, C-terminus)
B13: 4-C25L22-6C-VD3 (dansyl) (designed binder)
chain: NAADLEARIRHLRERLAARGPK([Ahx-VD3])DAK(Dansyl)QLAEQLARAFERFARAG
modifications: not fully specified (N-terminus, C-terminus)
B14: 3-C25L22-dT (designed binder)
chain: Ac-NAADLEAAIRHLAERLAARGPK(dT′)DAK(Dansyl)QLAEQLARAFEAFARAG
B15: 3-C15L8-dT (designed binder)
chain: Ac-NAADLEAK(dT′)IRHLAEK(Dansyl)LAARGPVDAAQLAEQLARRFEAFARAG
B16: 4-C10L17-dT (designed binder)
chain: Ac-NAADLEARIK(Dansyl)HLRERLK(dT′)ARGPRDAAQLAEQLARAFERFARAG
B17: 2-C10L17-dT (designed binder)
chain: Ac-NAADLEAAIK(Dansyl)HLAEALK(dT′)ARGPVDAAQLAEQLARAFEAFARAG

Primed or numbered codes have the meaning given here. Side chains are listed from the residue outwards. Ends that are not written are not given here. * marks the point of attachment. dT′ = N3-(decanoic acid)-2'-deoxythymidine (dT probe 19), Cc1cn([C@H]2C[C@H](O)[C@@H](CO)O2)c(=O)n(CCCCCCCCCC(=O)*)c1=O; coumarin = 7-methoxycoumarin-3-carboxylic acid, COc1ccc2cc(C(=O)*)c(=O)oc2c1; 25OHVD3 = 25-hydroxyvitamin D3, linked at its carbon 11; Dansyl = CN(C)c1cccc2c(S(=O)(=O)*)cccc12; 8C = 8-carbon spacer; Ahx = NCCCCCC(=O)O; VD3 = vitamin D3

In one test the target is T1, vitamin D binding protein. Description: SPR (Biacore 2000), DBP immobilized on CM5, 1:1 model. Background: In SPR one partner is held on a chip, and binding of the other changes the refractive index at the surface.
Broadly, the Kd is the concentration at which binding is half-saturated. In turn, B1 had a Kd of 900 nM.
Molecule B2 had a Kd of 50 nM.
Same read-out and setting: as for B3, the figure is 190 nM; as for B4, 890 nM.
As for B5, the Kd was 1100 nM.
Molecule B6 showed a Kd of 480 nM.
Turning to B7, the Kd came to 1800 nM.
Same read-out and setting: as for B8, the figure is 1300 nM; as for B9, 290 nM.
B10 showed a Kd of 1200 nM.
With B11, the Kd was found to be 110 nM.
Take B12: the Kd is 750 nM.
In turn, B13 showed a Kd of 1300 nM.

For a further test, the target named is thymidine kinase. Put plainly: fluorescence screen, 2 µM binder, 2 and 4 µM TK; estimate for 'hits'.
With B14, the Kd is below 20 nM.
As to B15, the Kd was below 20 nM.
As to B16, the Kd is below 20 nM.
On the same count and under the same terms, under B17 stands below 20 nM.
